Measured values from PMC4998004, “aPKC Inhibition by Par3 CR3 Flanking Regions Controls Substrate Access and Underpins Apical-Junctional Polarization” (Developmental Cell, 2016).
Residues, ends and D or L forms follow the SMILES beside them. No end group written: not given here.

Columns and labels:
[1] = test system: Par6-PKCι-Cdc42 complex; assay: In vitro activity of activated Par complex (data not shown); assay type: biochemical
[2] = target: T1, PKCιKD-2P (primed human PKC-iota kinase domain) (Homo sapiens, UniProt P41743, C595S); assay: In vitro kinase assay (ADP Quest), inhibition of phosphorylation of a model substrate peptide; assay type: biochemical; details: Figures 1C, S5C
T1 construct: encoding residues 248–596 (GenBank: NM_002740.5); GST (followed by a 3C protease site) (N, cleaved yes); made in house; host or cells: Hi5 insect cells, baculovirus, co-infected with a PDK-1 virus
T1 sequence (P41743 248-596 C595S): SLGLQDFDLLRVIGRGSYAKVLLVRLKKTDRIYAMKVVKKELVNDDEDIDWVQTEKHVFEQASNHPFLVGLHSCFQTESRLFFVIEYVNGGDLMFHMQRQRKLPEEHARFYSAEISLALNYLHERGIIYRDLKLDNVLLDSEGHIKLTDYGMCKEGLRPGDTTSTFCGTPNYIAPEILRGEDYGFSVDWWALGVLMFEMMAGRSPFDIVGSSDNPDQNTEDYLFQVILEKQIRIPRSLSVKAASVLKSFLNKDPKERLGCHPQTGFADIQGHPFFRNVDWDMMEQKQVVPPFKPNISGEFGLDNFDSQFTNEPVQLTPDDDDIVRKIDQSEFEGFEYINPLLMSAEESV
Protocol: The ADP Quest kit (DiscoveRx) was used to determine the kcat app and KM app values for ATP against the PKCιKD-1P and PKCιKD-2P using a series of synthetic peptide substrates as described by [Kjaer et al. (2013)]. The reactions were measured every 2 min for 30 min in a 384-well plate using a Safire^2 plate reader (Tecan). The kinetic constants were determined by fitting the data to the Michaelis-Menten equation. Data are represented as mean ± SEM. Fluorescence anisotropy assays were performed to determine the KD for each peptide labeled with a fluorescein tag following standard protocols using a Safire^2 plate reader (Tecan). The anisotropy values were normalized and the KD was determined using non-linear regression. […]
(§1) The ADP Quest kit (DiscoveRx) was used to determine the kcat app and Km app values for ATP against the PKCι KD-1P and PKCι KD-2P. The assay uses a coupled reaction to convert ADP to a product that has a fluorescence excitation at 530 nm and emission at 590 nm. […]
peptide ([…]) related to the Nishikawa and co-workers consensus were also used in the study (Nishikawa et al., 1997). […] The reactions were measured every two minutes for 30 minutes in a 384-well plate using a Safire 2 plate reader (Tecan). The kinetic constants were determined by fitting the data to Michaelis–Menten equation using the graphics program Prism (GraphPad Prism, version 5.0d, GraphPad Software). […]

[3] = target: PKCι kinase domain, 248-596 (UniProt P41743); assay: fluorescence anisotropy, fluorescein-labelled peptide; details: reference: unphosphorylated Par3CR3 peptide; sites S827
[4] = target: T1, PKCιKD-2P (primed human PKC-iota kinase domain); assay: In vitro kinase assay (ADP Quest), peptide as substrate, Michaelis-Menten kinetics; assay type: biochemical; details: in vitro kinase assay
Protocol: The ADP Quest kit (DiscoveRx) was used to determine the kcat app and KM app values for ATP against the PKCιKD-1P and PKCιKD-2P using a series of synthetic peptide substrates as described by [Kjaer et al. (2013)]. The reactions were measured every 2 min for 30 min in a 384-well plate using a Safire^2 plate reader (Tecan). The kinetic constants were determined by fitting the data to the Michaelis-Menten equation. Data are represented as mean ± SEM. Fluorescence anisotropy assays were performed to determine the KD for each peptide labeled with a fluorescein tag following standard protocols using a Safire^2 plate reader (Tecan). The anisotropy values were normalized and the KD was determined using non-linear regression. All experiments were performed in triplicate and for at least three independent protein preparations.
as §1, with “nm. Several synthetic peptide substrates were used including a model peptide” for “nm.”
([…]) derived from a PKCε pseudo-substrate sequence with an alanine-serine change. We found this peptide to be an efficient substrate peptide for aPKC isozymes. Peptides from human Par3CR3 (residues 816-835) and F-X-R short […]
peptide ([…]) related to the Nishikawa and co-workers consensus were also used in the study (Nishikawa et al., 1997). For the kcat app and Km app reactions, the ATP concentration ranged from 0-200 µM, while the synthetic peptide substrates were kept constant at 200 µM to avoid product inhibition. The reactions were measured every two minutes for 30 minutes in a 384-well plate using a Safire 2 plate reader (Tecan). The kinetic constants were determined by fitting the data to Michaelis–Menten equation using the graphics program Prism (GraphPad Prism, version 5.0d, GraphPad Software). […]

[5] = target: T2, human PKC-iota kinase domain, primed active form (PKCιKD-2P) (human, UniProt P41743 248-596, phosphothreonine at 412 and 564 (pT412, pT564)); assay: fluorescence polarisation; fluorescence anisotropy of fluorescein-labelled peptide with PKCι kinase domain; Safire2 plate reader; anisotropy normalised, KD by non-linear regression; triplicate, at least three independent protein preparations; details: both partners purified
T2 construct: human PKC-iota (PKCι) kinase domain, residues 248-596 of GenBank NM_002740.5; Details of the construct are in the Supplemental Experimental Procedures and in Kjaer et al., 2013; also called primed PKCι kinase domain; PKCι-2P; source: Hi5 cells, baculovirus, co-infection with a PDK-1 virus
T2 sequence (looked up): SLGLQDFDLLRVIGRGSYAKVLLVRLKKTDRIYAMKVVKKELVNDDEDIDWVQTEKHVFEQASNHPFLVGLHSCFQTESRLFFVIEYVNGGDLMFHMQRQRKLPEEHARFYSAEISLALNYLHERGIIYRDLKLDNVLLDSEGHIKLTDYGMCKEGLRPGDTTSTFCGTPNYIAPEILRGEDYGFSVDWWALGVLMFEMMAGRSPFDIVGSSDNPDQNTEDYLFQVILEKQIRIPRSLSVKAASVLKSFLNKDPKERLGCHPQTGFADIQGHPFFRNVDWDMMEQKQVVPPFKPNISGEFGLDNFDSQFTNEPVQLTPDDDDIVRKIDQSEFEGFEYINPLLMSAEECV

[6] = target: T3, human PKC-iota kinase domain, partially primed low-activity form (PKCιKD-1P) (human, UniProt P41743 248-596, partially primed: one of the two priming sites pT412 and pT564 phosphorylated); assay: FP
T3 chain: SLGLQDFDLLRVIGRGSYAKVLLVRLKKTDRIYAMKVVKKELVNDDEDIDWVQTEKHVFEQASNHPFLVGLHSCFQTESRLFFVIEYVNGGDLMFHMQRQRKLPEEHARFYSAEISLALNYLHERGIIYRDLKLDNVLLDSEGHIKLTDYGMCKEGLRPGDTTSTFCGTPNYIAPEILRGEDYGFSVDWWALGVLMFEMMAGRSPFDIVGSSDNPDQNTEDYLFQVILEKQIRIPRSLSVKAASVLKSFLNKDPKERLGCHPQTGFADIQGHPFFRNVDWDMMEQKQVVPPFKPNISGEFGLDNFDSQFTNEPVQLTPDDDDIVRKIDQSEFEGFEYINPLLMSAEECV

[7] = target: T4, human PKC-iota kinase domain, primed active form (PKCιKD-2P) (human, UniProt P41743 248-596, phosphothreonine at 412 and 564 (pT412, pT564)); assay: FP
T4 chain: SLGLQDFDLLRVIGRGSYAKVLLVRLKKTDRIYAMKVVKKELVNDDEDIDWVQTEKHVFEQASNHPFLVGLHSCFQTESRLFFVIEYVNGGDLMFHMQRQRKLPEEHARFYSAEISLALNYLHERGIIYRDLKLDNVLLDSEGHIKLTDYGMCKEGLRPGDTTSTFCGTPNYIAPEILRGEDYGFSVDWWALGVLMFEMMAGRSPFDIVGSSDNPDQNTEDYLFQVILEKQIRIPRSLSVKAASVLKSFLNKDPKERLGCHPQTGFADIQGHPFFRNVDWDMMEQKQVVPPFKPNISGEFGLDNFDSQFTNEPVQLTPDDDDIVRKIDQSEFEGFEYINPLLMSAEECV

[8] = target: T4, human PKC-iota kinase domain, primed …; assay: FP
[9] = target: T2, human PKC-iota kinase domain, primed …; assay: cell-based or functional assay

Molecule: CSCC[C@H](NC(=O)[C@H](CO)NC(=O)[C@H](CCC(N)=O)NC(=O)[C@H](CCCNC(=N)N)NC(=O)CNC(=O)[C@H](Cc1ccccc1)NC(=O)CNC(=O)[C@H](CCC(=O)O)NC(=O)[C@H](CCCNC(=N)N)NC(=O)[C@H](CCC(N)=O)NC(=O)[C@H](Cc1ccccc1)NC(=O)[C@H](C)NC(=O)[C@@H](N)CC(C)C)C(=O)N[C@@H](CO)C(=O)N[C@@H](CCC(=O)O)C(=O)N[C@@H](CCCCN)C(=O)N[C@@H](CCCNC(=N)N)C(=O)N[C@H](C(=O)N[C@@H](CCCCN)C(=O)O)[C@@H](C)O [Par3CR3] (H-LAFQREGFGRQSMSEKRTK-OH; N-terminus and C-terminus assumed)
- inhibition of activated Par complex (in words) [1]: potently inhibited

Molecule: Kibra-derived peptide: Kibra-derived peptide (residues 919–978) with F-X-R motif anchor and K-R inhibitory motif (LRGSTIIRSKTFSPGPQSQYVCRLNRSDSDSSTLSKKPPFVRNSLERRSVRMKRPSSVKS)
- inhibition of PKCι catalytic activity in vitro (in words) [2]: potently inhibit

Molecule: Par3 CR3, 816-834 (from UniProt Q8TEW0) phospho-S827 Par3CR3 peptide
- fold change [3]: weaker

Molecule: FKRQGSVRRR [F-X-Rshort peptide, artificial PKCι substrate resembling the aPKC consensus motif of Nishikawa et al]
- phosphorylation as substrate by PKCι in vitro (in words) [4]: efficient PKCι substrate
- inhibition of PKCι catalytic activity in vitro (in words) [2]: does not inhibit

B1: human Par3 conserved region 3 peptide, residues 816-834 (Par3CR3) (peptide, UniProt Q8TEW0 816-834, looked up)
peptide: LAFQREGFGRQSMSEKRTK
modifications: also: fluorescein label (position not given here)
notes: also called wild-type Par3CR3; source: synthetic peptide
- Kd [5]: 0.47 µM
- Kd [6]: 53.6 µM
- Kd [7]: 0.41 µM
- Kd [8]: 0.73 µM
- apparent IC50 of the block of phosphorylation of a model substrate peptide by PKCιKD-2P, in vitro kinase assay [9]: 0.45 µM

Molecule: LAFQREGFGRQAMSEKRTK (peptide, UniProt Q8TEW0 816-834, looked up, also: fluorescein label (position not given here), source: synthetic peptide) [Par3CR3 S827A mutant peptide]
- Kd [5]: 0.97 µM
- Kd [8]: 0.69 µM
